Measurements as given in publication PMC11301353 (iScience, 2024).

Columns and labels:
Test in all cases: site-directed spin labelling EPR
[1] = biological target: SET/TAF-Iβ E243C mutant, MTSL spin-labelled (UniProt Q01105-2 1-277, E243C, MTSL nitroxide spin label on Cys243)
[2] = biological target: SET/TAF-Iβ D260C mutant, MTSL spin-labelled (UniProt Q01105-2 1-277, D260C, MTSL nitroxide spin label on Cys260)
[3] = biological target: SET/TAF-Iβ D226C mutant, MTSL spin-labelled (UniProt Q01105-2 1-277, D226C, MTSL nitroxide spin label on Cys226)

Measured: binding result

B1: wild-type cytochrome c (natural protein)
chain: not shown
modifications: heme group (assembled by co-expressed yeast heme lyase); reduced state in ITC and EPR
binds: [1] | [2] | [3]
